Reference: patent US20190367612A1 (Daiichi Sankyo, published 2019)

T1: amino-terminal peptide of cynomolgus monkey GPRC5D …(Biotin)-NH2 (cynomolgus monkey, C-terminal lysine carrying biotin, C-terminal amide)
T1 construct: also called amino-terminal peptide of biotinylated cynomolgus monkey GPRC5D
T1 peptide: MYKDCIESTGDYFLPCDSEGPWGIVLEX

T2: human GPRC5D amino-terminal peptide MYKDCIESTGDYFLLCDAEGPWGIILE-K(Biotin)-NH2, having an intramolecular … (human, C-terminal lysine carrying biotin, C-terminal amide; intramolecularly formed disulfide bond)
T2 construct: Peptide Institute synthetic peptide; also called amino-terminal peptide of biotinylated human GPRC5D (disulfide bond present)
T2 peptide: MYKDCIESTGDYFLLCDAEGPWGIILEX

T3: human GPRC5D amino-terminal peptide …(Biotin)-NH2, lacking an intramolecular disulfide bond (human, biotinylated carboxy terminus, C-terminal amide; no intramolecularly formed disulfide bond)
T3 construct: Sigma-Aldrich synthetic peptide; also called amino-terminal peptide of human GPRC5D (disulfide bond absent)
T3 peptide: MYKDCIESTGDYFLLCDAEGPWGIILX

B1: IgG form of the human antibody C3015 (antibody, V domains shown)
VH: EVQLVESGGGVVQPGRSLRLSCAASGFTFRNYAMSWVRQAPGKGLEWVSGISGTGGSTYYADSVKGRFTISRDNSKDTLYLQLNSLRAEDTAVYYCAKSRSMSINYGMDVWGQGTTVTVSS
VL: SYELTQPPSVSVSPGQTVSITCSGDNLGDRYASWYQQKPGQSPVQVIYQDTKRPSGIPERFSGSNSGNTATLTISGTQAMDEADYYCQAWDSNTVVFGGGTKLTVLG
notes: Human IgG1; also called C3015 IgG form; full-length IgG form containing C3015
B2: rat anti-GPRC5D antibody 2B1 (antibody, V domains shown)
VH: QVTLKESGPGILQPSQTLSLTCTFSGFSLNTYDMGVGWIRQPSGKGLEWLANIWWDDDKYYNPSLRNRLTISKDTSNNQAFLKITNVDTADTATYYCARIETVRVSRKGFAHWGQGTLVTVSS
VL: ETVMTQSPTSMSTSIGERVTLNCKASQSVGINVDWYQQTPGQSPKLLIYGASNRHTGVPDRFTGSGFGRDFTLTISNVEAEDLAVYYCLQHGSIPPTFGGGTKLELK
notes: Rat IgG2b, kappa chain

How the values were obtained:
[1] = biological target: T1, amino-terminal peptide of cynomolgus …; test: ELISA, biotinylated peptide on NeutrAvidin
Procedure: (§1) NeutrAvidin diluted to 1 μg/mL with PBS was added in an amount of 50 μL/well to 96-well Maxi-sorp plate, and the plate was left standing overnight at 4° C. for immobilization. After washing three times with an ELISA buffer, the amino-terminal peptide of the biotinylated human or cynomolgus monkey GPRC5D (used in Example 10)-1) diluted to 1 μg/mL with PBS was added thereto, and the plate was shaken at room temperature for 1 hour. After washing three times with an ELISA buffer, the plate was blocked with Blocker Casein and washed three times with an ELISA buffer. Then, the culture solution of the IgG-expressing FreeStyle 293F cells was added to the plate and reacted at room temperature for 2 hours. After washing three times with an ELISA buffer, a horseradish peroxidase (HRP)-labeled anti-human Fab antibody (Jackson ImmunoResearch Laboratories, Inc.) diluted 2500-fold with ELISA buffer was added thereto in an amount of 50 μL/well and reacted at room temperature for 1 hour. After washing five times with an ELISA buffer, SuperSignal Pico ELISA Chemiluminescent substrate was added. After 10 minutes, the chemiluminescence was measured using a plate reader.

[2] = biological target: T4, human GPRC5D (human, UniProt Q9NZD1 1-345); test: flow cytometry on KHM-1B cells (human GPRC5D), PE anti-human IgG Fc detection, rMFI = MFI minus isotype control
T4 construct: whole, on cells; also called hGPRC5D; G-protein coupled receptor family C group 5 member D
Procedure: Human multiple myeloma cell line KHM-1B cells expressing GPRC5D were adjusted to a concentration of 2×10⁶ cells/mL with PBS containing 5% FBS, inoculated in an amount of 100 μL/well to a 96-well U-bottomed microplate, and centrifuged to remove the supernatant. The culture supernatant of each human anti-GPRC5D antibody (full-length IgG form containing C2037, C3048, C3015, or C3022) obtained in Example 10)-5 or Human IgG isotype control antibody (Calbiochem/Merck Millipore Corp.) adjusted to 14 ng/mL to 30 μg/mL was added thereto in an amount of 100 μL/well, and the plate was left standing at 4° C. for 1 hour. The cells were washed twice with PBS containing 5% FBS. Then, R-Phycoerythrin AffiniPure F(ab′)2 Fragment Goat Anti-Human IgG, Fcγ Fragment Specific (Jackson ImmunoResearch Laboratories, Inc.) diluted 100-fold with PBS containing 5% FBS was added thereto in an amount of 100 μL/well, and the plate was left standing at 4° C. for 1 hour. The cells were washed twice with PBS containing 5% FBS and then resuspended in PBS containing 5% FBS, followed by detection using a flow cytometer (FACSCanto™ II; Becton, Dickinson and Company). The data was analyzed using Flowjo (Tree Star, Inc.). The PE fluorescence intensity of the cell fraction was plotted to a histogram, and the mean fluorescence intensity (MFI) was calculated. The MFI value of the control antibody was subtracted from the MFI value of the GPRC5D antibody to calculate a relative value of MFI (rMFI).

[3] = biological target: T2, human GPRC5D amino-terminal peptide …; test: ELISA, chemiluminescence: biotinylated amino-terminal peptide of human GPRC5D on NeutrAvidin, culture supernatant of IgG-expressing cells (one concentration, not given), HRP anti-human Fab detection
Procedure: as §1

[4] = biological target: T2, human GPRC5D amino-terminal peptide …; test: ELISA, immobilised biotinylated peptide with disulfide bond
Source text: (§2) Epitopes bound by the obtained rat anti-GPRC5D antibodies (2A4, 2B1, and 7B4) were identified using a human GPRC5D amino-terminal peptide […](Biotin)-NH₂ (Sigma-Aldrich Corp.) (SEQ ID NO: 1 of the Sequence Listing; FIG. 2) having a biotinylated carboxy-terminal peptide and lacking an intramolecularly formed disulfide bond, and a human GPRC5D amino-terminal peptide […]-K(Biotin)-NH₂ (Peptide Institute, Inc.) (SEQ ID NO: 2 of the Sequence Listing; FIG. 3) having a lysine-containing biotinylated carboxy terminus and having an intramolecularly formed disulfide bond. Each peptide diluted with PBS was added to Nunc Immobilizer (Thermo Fisher Scientific Inc.), and the plate was left standing at room temperature for 1 hour. After washing three times with PBST, […] containing 1% BSA was added thereto, and the plate was left standing at room temperature for 1 hour. After washing three times with PBST, each rat anti-GPRC5D antibody (2A4, 2B1, and 7B4) prepared in Example 1)-7 and diluted to 0.1 ng/mL to 1 μg/mL with PBS was added thereto, and the plate was left standing at room temperature for 1 hour. […] After washing three times with PBST, SuperSignal™ ELISA Pico Chemiluminescent Substrate (Thermo Fisher Scientific Inc.) was added thereto, and the luminescence was measured using a plate reader (ENVISION; PerkinElmer, Inc.).

[5] = biological target: T4, human GPRC5D; test: flow cytometry, KMS-34 cells
[6] = biological target: T4, human GPRC5D; test: flow cytometry, KHM-1B cells
Procedure: Human multiple myeloma cell line KHM-1B cells (JCRB Cell Bank) expressing GPRC5D were adjusted to a concentration of 5×10⁶ cells/mL with PBS containing 5% FBS, inoculated in an amount of 100 μL/well to a 96-well U-bottomed microplate, and centrifuged to remove a supernatant. Each rat anti-GPRC5D antibody (2A4, 2B1, and 7B4) adjusted to 0.32 ng/mL to 10 μg/mL in Example 1)-7 was added thereto in an amount of 100 μL/well, and the plate was left standing at 4° C. for 1 hour. The cells were washed twice with PBS containing 5% FBS. Then, PE Goat Anti-Rat Ab (Becton, Dickinson and Company) diluted 100-fold with PBS containing 5% FBS was added thereto at a concentration of 100 μL/well, and the plate was left standing at 4° C. for 1 hour. The cells were washed twice with PBS containing 5% FBS and then resuspended in PBS containing 5% FBS, followed by detection using a flow cytometer (FACSCanto™ II; Becton, Dickinson and Company). The data was analyzed using Flowjo (Tree Star, Inc.). The PE fluorescence intensity of the cell fraction was plotted to a histogram, and the mean fluorescence intensity (MFI) was calculated.

[7] = biological target: T3, human GPRC5D amino-terminal peptide …; test: ELISA, immobilised biotinylated peptide without disulfide bond
Source text: as §2

Binder | binding result [1] | binding result [2] | binding result [3] | binding result [4] | Kd [5] [nM] | MFI (max) [5] | Kd [6] [nM] | MFI (max) [6] | binding result [7]
B1 | binds | binds | binds |  |  |  |  |  | 
B2 |  |  |  | binds | 12.7 | 3160 | 14.8 | 2390 | binds
